Experimental data: article PMC11240955, “Stability Engineering of Recombinant Secretory IgA” (International Journal of Molecular Sciences, 2024)

Biological target: T1, receptor-binding domain (RBD) of the SARS-CoV-2 spike, R319-F541, with a C-terminal 6xHis-tag (SARS-CoV-2, UniProt P0DTC2)
T1 construct: also called RBD-His; not shown: His6, C-terminal, kept
Test: ELISA
Conditions: both partners purified

B1: COVA2-15 monomeric IgA2m(1)_D133C (antibody, V domains shown)
VH: QVQLLESGGGLVQPGGSLRLSCAASGFTFSSYAMSWVRQAPGKGLEWASAISGSGGSTYYADSVEGRFTISRDNSKNTLYLQMNSLRAEDTAVYYCAKDTGYCGDDCYIKLIRGGPDYWGQGTLVTVSS
VL: DIVMTQSPLSLPVTLGQPASISCRSSQSLVYSDGNTFLNWFQQRPGQSPRRLIYQVSNRDSGVPDRFSGSGSGTDFTLKISRVEAEDVGVYYCMQGTHWPRTFGQGTKLEIK
notes: no single major 160 kDa peak in SEC; also called COVA2-15 mIgA2m(1)_D133C; mIgA2m(1)_D133C; copies: 2 + 2
Q: Does B1 bind?
A: Result: binds
